Data taken from patent US9518103B2, “Optogenetic probes for measuring membrane potential” (President and Fellows of Harvard College, priority 2014, dated 2016).
Read-outs that look alike come from different tables or passages of the source.

B1: Arch D95N: Archaerhodopsin 3 D95N mutant, non-pumping voltage indicator of US 2013/0224756 (protein)
chain: MDPIALQAGYDLLGDGRPETLWLGIGTLLMLIGTFYFLVRGWGVTDKDAREYYAVTILVPGIASAAYLSMFFGIGLTEVTVGGEMLDIYYARYANWLFTTPLLLLDLALLAKVDRVTIGTLVGVDALMIVTGLIGALSHTAIARYSWWLFSTICMIVVLYFLATSLRSAAKERGPEVASTFNTLTALVLVLWTAYPILWIIGTEGAGVVGLGIETLLFMVLDVTAKVGFGFILLRSRAILGDTEAPEPSAGADVSAAD
B2: Arch D95H/D106H/P60S: Arch triple mutant D95H, D106H, P60S (protein)
chain: MDPIALQAGYDLLGDGRPETLWLGIGTLLMLIGTFYFLVRGWGVTDKDAREYYAVTILVSGIASAAYLSMFFGIGLTEVTVGGEMLDIYYARYAHWLFTTPLLLLHLALLAKVDRVTIGTLVGVDALMIVTGLIGALSHTAIARYSWWLFSTICMIVVLYFLATSLRSAAKERGPEVASTFNTLTALVLVLWTAYPILWIIGTEGAGVVGLGIETLLFMVLDVTAKVGFGFILLRSRAILGDTEAPEPSAGADVSAAD
B3: Arch D95H/D106H/F161V: Arch triple mutant D95H, D106H, F161V (protein)
chain: MDPIALQAGYDLLGDGRPETLWLGIGTLLMLIGTFYFLVRGWGVTDKDAREYYAVTILVPGIASAAYLSMFFGIGLTEVTVGGEMLDIYYARYAHWLFTTPLLLLHLALLAKVDRVTIGTLVGVDALMIVTGLIGALSHTAIARYSWWLFSTICMIVVLYVLATSLRSAAKERGPEVASTFNTLTALVLVLWTAYPILWIIGTEGAGVVGLGIETLLFMVLDVTAKVGFGFILLRSRAILGDTEAPEPSAGADVSAAD
B4: Arch D95H/D106H: Arch double mutant D95H, D106H (protein)
chain: MDPIALQAGYDLLGDGRPETLWLGIGTLLMLIGTFYFLVRGWGVTDKDAREYYAVTILVPGIASAAYLSMFFGIGLTEVTVGGEMLDIYYARYAHWLFTTPLLLLHLALLAKVDRVTIGTLVGVDALMIVTGLIGALSHTAIARYSWWLFSTICMIVVLYFLATSLRSAAKERGPEVASTFNTLTALVLVLWTAYPILWIIGTEGAGVVGLGIETLLFMVLDVTAKVGFGFILLRSRAILGDTEAPEPSAGADVSAAD
B5: Arch(WT): wild-type Archaerhodopsin 3, light-driven proton pump from Halobacterium sodomense (protein)
chain: MDPIALQAGYDLLGDGRPETLWLGIGTLLMLIGTFYFLVRGWGVTDKDAREYYAVTILVPGIASAAYLSMFFGIGLTEVTVGGEMLDIYYARYADWLFTTPLLLLDLALLAKVDRVTIGTLVGVDALMIVTGLIGALSHTAIARYSWWLFSTICMIVVLYFLATSLRSAAKERGPEVASTFNTLTALVLVLWTAYPILWIIGTEGAGVVGLGIETLLFMVLDVTAKVGFGFILLRSRAILGDTEAPEPSAGADVSAAD
modifications: Halobacterium sodomense
notes: wild-type Archaerhodopsin 3, light-driven proton pump from Halobacterium sodomense

Experiments:
[1] = Quantum yield of solubilized protein (Cy5 reference); type: physicochemical; conditions: excitation at 600 nm
Procedure: Solubilization and spectroscopic characterization of QuasAr1 and QuasAr: E. coli expressing QuasAr1 and QuasAr2 were grown in 12 mL LB medium with 200 μg/ml ampicillin overnight. The next day, 12 mL of liquid LB medium containing 50 μM retinal, 200 μg/ml ampicillin and 0.1% arabinose was added into the overnight culture, followed by additional incubation at 37° C. for 4 hours. The cell pellets were collected by centrifugation and lysed by suspension in B-PER solution (Pierce). The cytoplasmic fraction was discarded after centrifugation and the colored insoluble fraction was resuspended in phosphate buffered saline (PBS) containing 1.5% n-dodecyl-β-D-maltopyranoside (Affymetrix, Inc.). The suspension was homogenized by an ultrasonic homogenizer and centrifuged (17,000 g for 15 mins, 4° C.). The solubilized protein in the supernatant was used for in vitro spectroscopic characterization.
Absorption spectra were recorded on a DU-800 UV-visible spectrophotometer (Beckman) and fluorescence spectra were recorded on a Safire2 plate reader (Tecan). Cy5 carboxylic acid (Cyandye) was used as the reference for quantum yield measurement. Quantum yield measurements were performed on a series of dilutions of each protein solution and standard, with absorbance values ranging from 0.01 to 0.05 at 600 nm. The fluorescence emission spectra of each dilution were recorded with excitation at 600 nm and the total fluorescence intensities obtained by integration. Integrated fluorescence intensity vs. absorbance was plotted for each protein and each standard. Quantum yields, Φ, were determined from the slopes (S) of each line using the equation: Φprotein=Φstandard×(Sprotein/Sstandard).

HEK293T cells = test: Simultaneous whole-cell patch clamp electrophysiology and fluorescence in HEK cells (brightness, voltage sensitivity, speed); type: cell-based; conditions: for voltage sensitivity (ΔF/F per 100 mV): HEK cells
Procedure: Simultaneous electrophysiology and fluorescence in HEK cells: HEK293T cells (ATCC CRL-11268) were cultured and transfected following standard protocols.^10 Briefly, HEK-293 cells were grown at 37° C., 5% CO2, in DMEM supplemented with 10% FBS and penicillin-streptomycin. Plasmids were transfected using Transit 293T (Mirus) following the manufacturer's instructions, and assayed 48 hours later. The day before recording, cells were re-plated onto glass-bottom dishes (MatTek) at a density of ˜10,000 cells/cm^2.
Cells were supplemented with retinal by diluting stock retinal solutions (40 mM, DMSO) in growth medium to a final concentration of 5 μM, and then returning the cells to the incubator for 0.5-1 hour. All imaging and electrophysiology were performed in Tyrode buffer (containing, in mM: 125 NaCl, 2.5 KCl, 3 CaCl2, 1 MgCl2, 10 HEPES, 30 glucose pH 7.3, and adjusted to 305-310 mOsm with sucrose). A gap junction blocker, 2-aminoethoxydiphenyl borate (50 μM, Sigma), was added to eliminate electrical coupling between cells.
Filamented glass micropipettes (WPI) were pulled to a tip resistance of 5-10 MΩ, and filled with internal solution containing 125 mM potassium gluconate, 8 mM NaCl, 0.6 mM MgCl2, 0.1 mM CaCl2, 1 mM EGTA, 10 mM HEPES, 4 mM Mg-ATP, 0.4 mM Na-GTP (pH 7.3); adjusted to 295 mOsm with sucrose. Pipettes were positioned with a Sutter MP285 manipulator. Whole-cell, voltage and current clamp recordings were acquired using an […] 700B amplifier (Molecular Devices), filtered at 2 kHz with the internal Bessel filter and digitized with a National Instruments PCIE-6323 acquisition board at 5-10 kHz. Data was only acquired from HEK cells having reversal potentials between −10 and −40 mV, access resistance<25 MΩ and membrane resistance>0.5 GΩ.
Simultaneous whole-cell patch clamp recordings and fluorescence recordings were acquired on a home-built, inverted epifluorescence microscope, described previously^10 and described below in “Apparatus”. For step response measurements, voltage clamp electronics were compensated 90-95%. We examined variants of QuasAr1 with mutations at position 95 (Asn, Cys, Gin, His and Tyr) and position 106 (Arg, Asp, Asn, Cys, Glu, His, Lys and Tyr). These experiments confirmed that histidine at position 106 provided undetectable photocurrent, and the best combination of improved voltage sensitivity, and fast kinetics.
We compared the fluorescence, voltage sensitivity, and speed of the QuasArs to wild-type Arch in HEK cells, using epifluorescence microscopy and whole-cell patch clamp electrophysiology. Under low intensity illumination (640 nm, 500 mW/cm^2), QuasAr1 was 15-fold brighter than wild-type Arch, and QuasAr2 was 3.3-fold brighter (FIG. 1B; Methods).

[2] = earlier work, cited from earlier work
[3] = test system: cultured rat hippocampal neurons; test: Photocurrent in cultured rat hippocampal neurons; type: cell-based
Procedure: FIGS. 4A-4B show the photophysics of QuasArs in mammalian cells. […] Steady state photocurrents were calculated by averaging the current over the last 0.25 seconds of light exposure and subtracting the holding current (cells held at −65 mV) in the dark. These currents hyperpolarized cells by 25±4 mV and 19±3 mV, respectively. […] The double mutants had mutations at the locations of the proton acceptor (Asp95) and proton donor (Asp106) to the Schiff base. QuasAr1 includes mutations D95H, D106H, and QuasAr2 includes mutations D95Q, D106H. The three additional backbone mutations in the QuasArs (P60S, T80S, F161V) increased brightness relative to the double mutants, Fluorescence of each Arch mutant was measured with excitation at 640 nm and emission from 660-760 nm. To control for variation in expression level, fluorescence was normalized by eGFP fluorescence (λexc=488 nm, λem=510−550 nm). Error bars represent s.e.m. for measurements on n=5-10 cells.
Measurements were performed on primary cultures at 13-15 DIV. Experiments were conducted in Tyrode's solution containing 125 mM NaCl, 2.5 mM KCl, 3 mM CaCl2, 1 mM MgCl2, 10 mM HEPES, 30 mM glucose (pH 7.3) and adjusted to 305-310 mOsm with sucrose. Prior to imaging, neurons were incubated with 5 μM all-trans retinal for 30 minutes and then washed with Tyrode's solution.
Synaptic blockers were added to the imaging medium for measurements of single-cell electrophysiology (Arch photocurrents, and single-cell excitability). The blockers comprised NBQX (10 μM, Tocris), D(−)-2-amino-5-phosphonovaleric acid (APS; […]), and gabazine (SR-95531, 20 μM, Tocris). For measurements of channel rhodopsin photocurrents in neurons, TTX (1 μM, Tocris) was included along with the synaptic blockers to prevent recruitment of voltage gated sodium channels. […] Recordings were terminated if membrane resistance changed by >10%. Experiments were performed at 23° C. under ambient atmosphere unless otherwise noted.

[4] = blue illumination (488 nm, 500 mW/cm^2)
[5] = red illumination (640 nm, 300 W/cm^2)

Molecule | Quantum yield [1] | Quantum yield relative to Arch D95N [1] | voltage sensitivity (ΔF/F per 100 mV) (HEK293T cells) [%] | step response / response time [2] [ms] | voltage sensitivity compared with QuasAr2 (HEK293T cells) | also measured
B1 | 4 × 10^−4 | 1 | 60 | 41 |  | step response / response time ([2]; listed as Arch 3 D95N): 40 ms
B2 | 5 × 10^−3 | 12 |  |  |  | 
B3 | 5 × 10^−3 | 13 |  |  |  | 
B4 | 2 × 10^−3 | 4.2 |  |  | three-fold less than the sensitivity of QuasAr2 | 
B5 | *Due to the low light intensities used to determine QYs, fluorescence from Arch was not detected above baseline. |  | 40 | 0.6 | three-fold less than the sensitivity of QuasAr2 | τdown (+30 mV to −70 mV) % τ1 (HEK293T cells; 23° C.): 67%; τdown (+30 mV to −70 mV) τ1 (HEK293T cells; 23° C.): 0.25 ms; τdown (+30 mV to −70 mV) τ2 (HEK293T cells; 23° C.): 1.9 ms; τup (−70 mV to +30 mV) τ1 (HEK293T cells; 23° C.): 0.6 ms; Brightness (λexc = 640 nm) 0.7 W/cm^2 (HEK293T cells; 23° C., HEK293 cells): 1; Brightness (λexc = 640 nm) 800 W/cm^2 (HEK293T cells; 23° C., HEK293 cells): 4.0; Sensitivity (ΔF/F per 100 mV) (HEK293T cells; 23° C., HEK293 cells): 40%; hyperpolarization of cells by photocurrent [3, 4]: 19±3 mV; photocurrent [3, 4]: 140±25 pA; hyperpolarization of cells by photocurrent [3, 5]: 25±4 mV; photocurrent [3, 5]: 220±30 pA
